Assay results as given in article PMC4075756 (Nature, 2011).

Target: the molecule itself
Assay: SEC + other: sucrose gradient centrifugation

B1: rat dynamin 1 lacking the proline-rich domain (Dyn1 ΔPRD) (domain or fragment)
chain: MGNRGMEDLIPLVNRLQDAFSAIGQNADLDLPQIAVVGGQSAGKSSVLENFVGRDFLPRGSGIVTRRPLVLQLVNSTTEYAEFLHCKGKKFTDFEEVRLEIEAETDRVTGTNKGISPVPINLRVYSPHVLNLTLVDLPGMTKVPVGDQPPDIEFQIRDMLMQFVTKENCLILAVSPANSDLANSDALKIAKEVDPQGQRTIGVITKLDLMDEGTDARDVLENKLLPLRRGYIGVVNRSQKDIDGKKDITAALAAERKFFLSHPSYRHLADRMGTPYLQKVLNQQLTNHIRDTLPGLRNKLQSQLLSIEKEVDEYKNFRPDDPARKTKALLQMVQQFAVDFEKRIEGSGDQIDTYELSGGARINRIFHERFPFELVKMEFDEKELRREISYAIKNIHGIRTGLFTPDLAFEATVKKQVQKLKEPSIKCVDMVVSELTSTIRKCSEKLQQYPRLREEMERIVTTHIREREGRTKEQVMLLIDIELAYMNTNHEDFIGFANAQQRSNQMNKKKTSGNQDEILVIRKGWLTINNIGIMKGGSKEYWFVLTAENLSWYKDDEEKEKKYMLSVDNLKLRDVEKGFMSSKHIFALFNTEQRNVYKDYRQLELACETQEEVDSWKASFLRAGVYPERVGDKEKASETEENGSDSFMHSMDPQLERQVETIRNLVDSYMAIVNKTVRDLMPKTIMHLMINNTKEFIFSELLANLYSCGDQNTLMEESAEQAQRRDEMLRMYHALKEALSIIGDINTTTVST
  stoichiometry N: 2
